These results are taken from publication PMC8982406.

Where a chain is given by its changes, count along the chain named. Numbers in names are those of the source.

For assay [1], the target named is full-length RLIM protein (wild type; mapping and mutation co-IPs) (UniProt Q9NVW2). Briefly: co-IP (IP: FLAG, IB: myc), blot quantification. As to conditions: ZC4H2-myc + RLIM-FLAG, MG132 +; parent: 1.00.
The target in assay [2] is T1, full-length RLIM protein (wild type; mapping and mutation co-IPs), Q9NVW2.
T1 chain: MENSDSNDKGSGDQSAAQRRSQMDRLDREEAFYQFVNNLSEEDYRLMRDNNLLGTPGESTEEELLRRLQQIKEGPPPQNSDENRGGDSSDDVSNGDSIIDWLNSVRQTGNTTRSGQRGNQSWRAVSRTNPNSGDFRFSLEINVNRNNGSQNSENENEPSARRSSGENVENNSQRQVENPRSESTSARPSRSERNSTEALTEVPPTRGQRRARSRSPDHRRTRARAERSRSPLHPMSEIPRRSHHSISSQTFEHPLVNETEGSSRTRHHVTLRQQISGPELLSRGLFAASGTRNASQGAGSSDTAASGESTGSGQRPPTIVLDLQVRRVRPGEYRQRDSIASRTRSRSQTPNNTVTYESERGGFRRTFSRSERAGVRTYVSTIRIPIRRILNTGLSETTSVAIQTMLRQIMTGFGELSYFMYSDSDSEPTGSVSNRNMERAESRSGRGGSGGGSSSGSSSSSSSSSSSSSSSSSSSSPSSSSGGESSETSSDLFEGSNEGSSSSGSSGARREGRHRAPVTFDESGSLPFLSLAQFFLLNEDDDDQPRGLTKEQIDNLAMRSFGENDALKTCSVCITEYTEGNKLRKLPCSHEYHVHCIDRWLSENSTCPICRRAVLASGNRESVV
Briefly: co-IP (IP: FLAG, IB: myc), blot quantification. To be noted: chain shown with the change; ZC4H2-myc + RLIM-FLAG, MG132 +; parent: 1.00.

As for “ZC4H2 (wild type; mapping and mutation co-IPs) (from UniProt Q9NQZ6) A201S”, the ratio to parent in assay [1] is 0.13.

B1: ZC4H2 (wild type; mapping and mutation co-IPs), Q9NQZ6 A200V (protein)
chain: MADEQEIMCKLESIKEIRNKTLQMEKIKARLKAEFEALESEERHLKEYKQEMDLLLQEKMAHVEELRLIHADINVMENTIKQSENDLNKLLESTRRLHDEYKPLKEHVDALRMTLGLQRLPDLCEEEEKLSLDYFEKQKAEWQTEPQEPPIPESLAAAAAAAQQLQVARKQDTRQTATFRQQPPPMKACLSCHQQIHRNVPICPLCKAKSRSRNPKKPKRKQDE
For the molecule B1, the ratio to parent in assay [2] turned out to be 0.18.

B2: ZC4H2 (wild type; mapping and mutation co-IPs), Q9NQZ6 R198Q (protein)
chain: B1 chain with R198Q, V200A
On to B2, for which, in assay [2], the ratio to parent turned out to be 0.15.

B3: ZC4H2 (wild type; mapping and mutation co-IPs), Q9NQZ6 V63L (protein)
chain: B1 chain with V63L, V200A
As for B3, the ratio to parent in assay [2] was found to be 1.2.

B4: ZC4H2 (wild type; mapping and mutation co-IPs), Q9NQZ6 R213W (protein)
chain: B1 chain with V200A, R213W
Regarding B4, the ratio to parent in assay [2] was 0.19.
